The results in this text go back to publication PMC314469, “Protein Interaction Networks by Proteome Peptide Scanning” (PLoS Biology, 2004).

First the molecules themselves.
T1: amphyphisin SH3 (AMPH_HUMAN), P49418
T1 chain: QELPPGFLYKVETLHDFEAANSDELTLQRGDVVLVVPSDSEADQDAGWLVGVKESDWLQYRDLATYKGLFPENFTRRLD

B1: Q8WW30 14-28 (peptide)
chain: RRDPPRRPPRNGYG
B2: P46092 337-350 (peptide)
chain: RRGSPRRPRLSSSS
B3: Q9Y6X4 343-356 (peptide)
chain: RSGNLKRPKIGKRF
B4: O60449 754-767 (peptide)
chain: AVKVFHRPWRRGWH
B5: Q9HDB5 8-21 (peptide)
chain: RRSPPRRPAWTLGI
B6: Q9NR61 553-566 (peptide)
chain: RQLRLRRPDDGSRE
B7: Q9HCK4 226-239 (peptide)
chain: RPTFLRRPINQVVL
B8: P53814 641-654 (peptide)
chain: AATQPLRPPRGTAA
B9: Q9H6G5 120-133 (peptide)
chain: RQHLPERPRRSPLS
B10: Q9HCU0 92-105 (peptide)
chain: RQSQLQRPLRGFTW
B11: O43541 61-74 (peptide)
chain: RPVAPRRPRDAVGQ
B12: O43584 87-101 (peptide)
chain: RPPRPSRPPPPTPR
B13: Q9Y520 1361-1374 (peptide)
chain: RPSTLRRPAYRDNQ
B14: Q96M62 296-309 (peptide)
chain: RRLALRRPEILVQP
B15: Q15532 247-261 (peptide)
chain: RQIPPYRPPQQGPP
B16: Q9H5Q5 226-240 (peptide)
chain: RRNVPMKPPDEAKV
B17: Q9P0P1 47-60 (peptide)
chain: AVMALRRPGERQYR
B18: Q9BV18 42-55 (peptide)
chain: RRSRLRRPAVRPTD
B19: Q9H3F6 298-311 (peptide)
chain: RRIHIKRPDDRAHL
B20: O60486 5-18 (peptide)
chain: RRKAPPRPPRPAAP
B21: Q8TDP0 171-185 (peptide)
chain: RPTVPARPPATHPR
B22: Q9Y520 1420-1434 (peptide)
chain: RRQRPTRPPRQDKP
B23: Q9NWI3 259-272 (peptide)
chain: RRPALHRPIKVNLL
B24: Q9BQA8 78-92 (peptide)
chain: RRQPPARPPGPSTD
B25: Q9Y5R2 356-370 (peptide)
chain: RQPRPPRPPLGDRP
B26: Q96QG0 344-357 (peptide)
chain: RPRRPRRPGPSDPA
B27: Q9BZW7 5-18 (peptide)
chain: RSKSPRRPSPTARG
B28: Q96Q34 14-27 (peptide)
chain: RRARPRRPREAPAP
B29: Q9BXX0 822-836 (peptide)
chain: RPVLPQRPPEERPP
B30: P31152 530-543 (peptide)
chain: RRQPPVRPGRVHLP
B31: Q9NR56 273-286 (peptide)
chain: AVKSLKRPLEATFD
B32: P52849 66-80 (peptide)
chain: RPPVPPRPPRPPET
B33: O43161 2760-2773 (peptide)
chain: RQQTLPRPMKTLQR
B34: P17600 586-600 (peptide)
chain: RQGPPQKPPGPAGP
B35: Q96MS0 257-270 (peptide)
chain: RPSFLRRPVNQVVL
B36: Q96JH1 1030-1044 (peptide)
chain: RRRSPPRPPSRPAR
B37: Q14839 1380-1393 (peptide)
chain: RSEAPRRPSRKGLR
B38: Q96EZ6 93-106 (peptide)
chain: RRLQPRRPGYPPRP

In the first assay the target is T1, amphyphisin SH3 (AMPH_HUMAN), P49418. Description: SPOT array.
B1 came in with a normalised SPOT signal, Boehringer light units (BLU); mean over the file's lines of this peptide of 8150.
Molecule B2 returned a normalised SPOT signal, Boehringer light units (BLU); mean over the file's lines of this peptide of 41.2.
B3: the normalised SPOT signal, Boehringer light units (BLU); mean over the file's lines of this peptide worked out at 13.4.
Still for that read-out and setting: the same measure for B4: 787.
In turn, B5 displayed a normalised SPOT signal, Boehringer light units (BLU); mean over the file's lines of this peptide of 88.8.
Molecule B6 returned a normalised SPOT signal, Boehringer light units (BLU); mean over the file's lines of this peptide of 39.7.
The same measure, in the same setting: the same measure for B7: 169.
The same measure, in the same setting: in the case of B8 it was 11900; in that of B9, 5990; in that of B10, 1210.
For B11, the normalised SPOT signal, Boehringer light units (BLU); mean over the file's lines of this peptide stood at 3660.
Same read-out and setting: in the case of B12 it was 7260; in that of B13, 44.5.
Still for that read-out and setting: in the case of B14 it was 9.3.
On the same count and under the same terms, the same measure for B15: 170; for B16: 2290; for B17: 38.9.
B18 yielded a normalised SPOT signal, Boehringer light units (BLU); mean over the file's lines of this peptide of 41.8.
As to B19, the normalised SPOT signal, Boehringer light units (BLU); mean over the file's lines of this peptide stood at 20.8.
Still for that read-out and setting: in the case of B20 it was 1450.
As to B21, the normalised SPOT signal, Boehringer light units (BLU); mean over the file's lines of this peptide was determined as 8140.
Same read-out and setting: in the case of B22 it was 6770; in that of B23, 111.
Same read-out and setting: in the case of B24 it was 1490.
The same measure, in the same setting: in the case of B25 it was 1470.
B26 registered a normalised SPOT signal, Boehringer light units (BLU); mean over the file's lines of this peptide of 594.
On the same count and under the same terms, the same measure for B27: 41.9.
On the same count and under the same terms, the same measure for B28: 35.2; for B29: 252.
The same measure, in the same setting: the same measure for B30: 4120.
Take B31: the normalised SPOT signal, Boehringer light units (BLU); mean over the file's lines of this peptide came to 23.6.
Same read-out and setting: the same measure for B32: 5400; for B33: 79.1.
Still for that read-out and setting: in the case of B34 it was 46.6.
Still for that read-out and setting: the same measure for B35: 43.9.
Molecule B36 had a normalised SPOT signal, Boehringer light units (BLU); mean over the file's lines of this peptide of 21500.
Same read-out and setting: the same measure for B37: 12500; for B38: 58.2.

A further assay has as its target endophilin SH3 (SH3G2_HUMAN), Q99962. Briefly: SPOT array.
For the molecule B1, the normalised SPOT signal, Boehringer light units (BLU); mean over the file's lines of this peptide stood at 5040.
Same read-out and setting: the same measure for B2: 11.2; for B3: 50.1.
Still for that read-out and setting: in the case of B4 it was 38.8; in that of B5, 1580.
On the same count and under the same terms, in the case of B6 it was 61.3; in that of B7, 575.
In the case of B8, the normalised SPOT signal, Boehringer light units (BLU); mean over the file's lines of this peptide was determined as 1480.
Turning to B9, the normalised SPOT signal, Boehringer light units (BLU); mean over the file's lines of this peptide was found to be 11100.
Take B10: the normalised SPOT signal, Boehringer light units (BLU); mean over the file's lines of this peptide amounted to 235.
Same read-out and setting: the same measure for B11: 1530; for B12: 13600.
The same measure, in the same setting: the same measure for B13: 112.
On the same count and under the same terms, the same measure for B14: 31.7.
B15 came in with a normalised SPOT signal, Boehringer light units (BLU); mean over the file's lines of this peptide of 68.
In the case of B16, the normalised SPOT signal, Boehringer light units (BLU); mean over the file's lines of this peptide was found to be 147.
The same measure, in the same setting: the same measure for B17: 206.
For B18, the normalised SPOT signal, Boehringer light units (BLU); mean over the file's lines of this peptide turned out to be 28.4.
Consider B19, for which the normalised SPOT signal, Boehringer light units (BLU); mean over the file's lines of this peptide was 70.2.
On the same count and under the same terms, the same measure for B20: 9570.
B21 yielded a normalised SPOT signal, Boehringer light units (BLU); mean over the file's lines of this peptide of 14800.
On the same count and under the same terms, the same measure for B22: 3120; for B23: 109.
On the same count and under the same terms, the same measure for B24: 9600; for B25: 4010; for B26: 1340.
Still for that read-out and setting: the same measure for B27: 121; for B28: 144; for B29: 420.
Consider B30, for which the normalised SPOT signal, Boehringer light units (BLU); mean over the file's lines of this peptide is 7420.
B31 yielded a normalised SPOT signal, Boehringer light units (BLU); mean over the file's lines of this peptide of 20.3.
Consider B32, for which the normalised SPOT signal, Boehringer light units (BLU); mean over the file's lines of this peptide amounted to 8560.
In the case of B33, the normalised SPOT signal, Boehringer light units (BLU); mean over the file's lines of this peptide is 67.7.
The same measure, in the same setting: the same measure for B34: 325; for B35: 171.
B36 registered a normalised SPOT signal, Boehringer light units (BLU); mean over the file's lines of this peptide of 9450.
Same read-out and setting: the same measure for B37: 9710; for B38: 325.
